Molecular target: the molecule itself
Assay: dynamic light scattering; 10 µM ELP in PBS on a heating ramp (7-40 °C in the legend, 7-37 °C in the methods), scattering angle 90°; nanoparticles between the CMT and Tt,bulk (18.5 and 27 °C for ELP-[*M1V3-40]-[I-90]; 19 and 31 °C for ELP-[*M1V3-60]-[I-90])

B1: ELP-[*M1V3-40]-[I-90] (other)
chain: MWVPGVGVPGMGVPGVGVPGVGVPGVGVPGMGVPGVGVPGVGVPGVGVPGMGVPGVGVPGVGVPGVGVPGMGVPGVGVPGVGVPGVGVPGMGVPGVGVPGVGVPGVGVPGMGVPGVGVPGVGVPGVGVPGMGVPGVGVPGVGVPGVGVPGMGVPGVGVPGVGVPGVGVPGMGVPGVGVPGVGVPGVGVPGMGVPGVGVPGVGIGVPGIGVPGIGVPGIGVPGIGVPGIGVPGIGVPGIGVPGIGVPGIGVPGIGVPGIGVPGIGVPGIGVPGIGVPGIGVPGIGVPGIGVPGIGVPGIGVPGIGVPGIGVPGIGVPGIGVPGIGVPGIGVPGIGVPGIGVPGIGVPGIGVPGIGVPGIGVPGIGVPGIGVPGIGVPGIGVPGIGVPGIGVPGIGVPGIGVPGIGVPGIGVPGIGVPGIGVPGIGVPGIGVPGIGVPGIGVPGIGVPGIGVPGIGVPGIGVPGIGVPGIGVPGIGVPGIGVPGIGVPGIGVPGIGVPGIGVPGIGVPGIGVPGIGVPGIGVPGIGVPGIGVPGIGVPGIGVPGIGVPGIGVPGIGVPGIGVPGIGVPGIGVPGIGVPGIGVPGIGVPGIGVPGIGVPGIGVPGIGVPGIGVPGIGVPGIGVPGIGVPGIGVPGIGVPGIGVPGIGVPGIGVPGY
modifications: Thioether side chain of Met residues oxidized into sulfoxide M(O) with H2O2 (11 Met); two Met residues were found oxidized into sulfone M(O2)
notes: N-terminal leader of the elastin-like polypeptide; C-terminal residue; also called oxidized ELP-[M1V3-40]-[I-90]; source: E. coli BL21 Star (DE3), purified (inverse transition cycling with ammonium sulfate, desalting), then oxidised with H2O2
binding result: binds

Reference: PMC8125372, “Refining the Design of Diblock Elastin-Like Polypeptides for Self-Assembly into Nanoparticles” (Polymers, 2021)
